Measured values: patent publication US20240352130A1 (CHILDREN S HOSPITAL OF PHILADELPHIA, published 2024)
Like-named read-outs stand apart in the source and are kept apart here.

How the values were obtained:
[1] = target: T1, PHOX2B (43-51) A*24:02 MHC complex (human); assay: BLI (BLItz), biotinylated scFv on streptavidin sensor, soluble pMHC 200 nM
T1 construct: also called PHOX2B (43-51) complex; PHOX2B target pMHC
Description: (§1) Binding kinetics. Affinity measurements were performed using a BLItz™ system (ForteBio, USA) and analyzed using the BLItz Pro™ software.

… HLA-A*24:02 complex [2] = target: T2, … HLA-A*24:02 complex (human); assay: bead-based binding, scFv on streptavidin beads, fluorescent pMHC
T2 construct: also called Unrelated peptide 1

… HLA-A*24:02 complex [3] = target: T3, … HLA-A*24:02 complex (human); assay: as above
T3 construct: also called Unrelated peptide 2

… HLA-A*24:02 complex [4] = target: T4, … HLA-A*24:02 complex (human); assay: as above
T4 construct: also called Unrelated peptide 3

… HLA-A*24:02 complex [5] = target: T5, … HLA-A*24:02 complex (human); assay: as above
T5 construct: also called Unrelated peptide 4

[6] = target: T1, PHOX2B (43-51) A*24:02 MHC complex; assay: BLI (BLItz), biotinylated scFv on streptavidin sensor, soluble pMHC 200 nM; remark: listed apart in the source
Description: as §1
… HLA-A*24:02 complex [7] = target: T2, … HLA-A*24:02 complex; assay: bead-based binding, scFv on streptavidin beads, fluorescent pMHC; remark: listed apart in the source
… HLA-A*24:02 complex [8] = target: T3, … HLA-A*24:02 complex; assay: as above; remark: listed apart in the source
… HLA-A*24:02 complex [9] = target: T4, … HLA-A*24:02 complex; assay: as above; remark: listed apart in the source
… HLA-A*24:02 complex [10] = target: T5, … HLA-A*24:02 complex; assay: as above; remark: listed apart in the source
[11] = target: T1, PHOX2B (43-51) A*24:02 MHC complex; assay: BLI (BLItz), biotinylated scFv on streptavidin sensor, soluble pMHC 200 nM; remark: listed apart in the source
Description: as §1
… HLA-A*24:02 complex [12] = target: T2, … HLA-A*24:02 complex; assay: bead-based binding, scFv on streptavidin beads, fluorescent pMHC; remark: listed apart in the source
… HLA-A*24:02 complex [13] = target: T3, … HLA-A*24:02 complex; assay: as above; remark: listed apart in the source
… HLA-A*24:02 complex [14] = target: T4, … HLA-A*24:02 complex; assay: as above; remark: listed apart in the source
… HLA-A*24:02 complex [15] = target: T5, … HLA-A*24:02 complex; assay: as above; remark: listed apart in the source
… HLA-A*24:02 complex [16] = target: T2, … HLA-A*24:02 complex; assay: bead-based steady-state binding assay (FIG. 3A)
Description: (§2) Steady-state binding assay. An equilibrium binding assay to target pMHCs was also established using MyOne Streptavidin C1 Dynabeads. Briefly, 50 micrograms of Streptavidin C1 Dynabeads were incubated with excess biotinylated scFv before being blocked with free biotin and washed in PBS. […] Binding was normalized to beads without scFv and with unrelated control MHC complex.
… HLA-A*24:02 complex [17] = target: T3, … HLA-A*24:02 complex; assay: bead-based steady-state binding assay (FIG. 3A)
Description: as §2
… HLA-A*24:02 complex [18] = target: T4, … HLA-A*24:02 complex; assay: bead-based steady-state binding assay (FIG. 3A)
Description: as §2
… HLA-A*24:02 complex [19] = target: T5, … HLA-A*24:02 complex; assay: bead-based steady-state binding assay (FIG. 3A)
Description: as §2

[20] = target: T1, PHOX2B (43-51) A*24:02 MHC complex; assay: BLI (BLItz), biotinylated scFv on a streptavidin sensor, soluble pMHC in solution
Description: as §1

[21] = target: T1, PHOX2B (43-51) A*24:02 MHC complex; assay: BLI (BLItz), biotinylated scFv on streptavidin sensor, soluble pMHC 200 nM; remark: listed apart in the source
Description: as §1

B1: Clone 1113 (RU-201-1113) scFv (scFv)
scFv: SRNGGDGQSVLTQPPSVSAAPGQKVTISCSGSSSNIGNNYVSWYQQLPGTAPKLLIYDNNKRPSGIPDRFSGSKSGTSATLGITGLQTGDEADYYCGTWDHMGRNTVVFGTGTKVTVSSQTGGSGGGGSGGGGSGGGGSEVQLLESGGGLVQPGGSLRLSCAASGFTFSDYAMSWVRQAPGKGLEWVSAISGTGGSTYYADSVKGRFTISRDNSKNTLYLQMNSLRAEDTAVYYCAKEFSVVNSAAFDIWGQGTMVTVSSS
Kd [1]: 9 nM | binding result (… HLA-A*24:02 complex [2]): no binding (tested: 3.5 nM) | binding result (… HLA-A*24:02 complex [3]): no binding (tested: 3.5 nM) | binding result (… HLA-A*24:02 complex [4]): no binding (tested: 3.5 nM) | binding result (… HLA-A*24:02 complex [5]): no binding (tested: 3.5 nM)

B2: Clone 9 (RU-201-9) scFv (scFv)
scFv: SRNGGDGQSVLTQPPSVSVSPGQTASITCSGDSLGYKYACWYQQKPGQSPVLVIYQDSKRPSGIPERFSGSNSGNTATLTISGTQAMDEADYYCQAWDSLGVNTVVFGTGTKVTVSSQTGGSGGGGSGGGGSGGGGSEVQLLESGGGLVQPGGSLRLSCAASGFTFNYYAMSWVRQAPGKGLEWVSAISGYGGSTYYADSVKGRFTISRDNSKNTLYLQMNSLRAEDTAVYYCAKASEAYSAFDIWGQGTMVTVSSS
Kd [6]: 100 nM | binding result (… HLA-A*24:02 complex [7]): no binding (tested: 3.5 nM) | binding result (… HLA-A*24:02 complex [8]): no binding (tested: 3.5 nM) | binding result (… HLA-A*24:02 complex [9]): no binding (tested: 3.5 nM) | binding result (… HLA-A*24:02 complex [10]): no binding (tested: 3.5 nM)

B3: Clone 1114 (RU201-1114) scFv (scFv)
scFv: SRNGGDGQSVLTQPPSVSVSPGQTASITCSGDKLGDKYACWYQQKPGQSPVLVIYQDSKRPSGIPERFSGSNSGNTATLTISGTQAMDEADYYCQAWDSIGNMTVVFGTGTKVTVSSQTGGSGGGGSGGGGSGGGGSEVQLLESGGGLVQPGGSLRLSCAASGFTFDYYAMSWVRQAPGKGLEWVSAISGYGGSTYYADSVKGRFTISRDNSKNTLYLQMNSLRAEDTAVYYCAKASEYTNAFDIWGQGIMVTVSSS
Kd [11]: 270 nM | binding result (… HLA-A*24:02 complex [12]): no binding (tested: 3.5 nM) | binding result (… HLA-A*24:02 complex [13]): no binding (tested: 3.5 nM) | binding result (… HLA-A*24:02 complex [14]): no binding (tested: 3.5 nM) | binding result (… HLA-A*24:02 complex [15]): no binding (tested: 3.5 nM)

B4: Clone 10 (RU141-10) scFv (scFv)
scFv: SRNGGDGQSVLTQPPSVSVSPGQTASITCSGDSLGNKYACWYQQKPGQSPVLVIYQDSKRPSGIPERFSGSNSGNTATLTISGTQAMDEADYYCQAWDSSRGYTVVFGTGTKVTVSSQTGGSGGGGSGGGGSGGGGSEVQLLESGGGLVQPGGSLRLSCAASGFTFDSYAMSWVRQAPGKGLEWVSAISGYGGSTYYADSVKGRFTISRDNSKNTLYLQMNSLRAEDTAVYYCAKYTYFLDAFDIWGQGTMVTVSSS
binding result (… HLA-A*24:02 complex [16]): no binding (tested: 3.5 nM pMHC) | binding result (… HLA-A*24:02 complex [17]): no binding (tested: 3.5 nM pMHC) | binding result (… HLA-A*24:02 complex [18]): no binding (tested: 3.5 nM pMHC) | binding result (… HLA-A*24:02 complex [19]): no binding (tested: 3.5 nM pMHC) | koff [20]: 0.00076 s⁻¹ | Kd [21]: 10 nM
